Blank lines part the entries; values can stand above or below the molecule they belong to.
Legend:
[1] = Probe fluorescence ratio response to stearate:BSA complex, relative to ADIFAB2 (ΔR/ΔRAD2); type: binding
[2] = Probe fluorescence ratio response to palmitoleate:BSA complex, relative to ADIFAB2 (ΔR/ΔRAD2); type: binding
[3] = Probe fluorescence ratio response to linolenate:BSA complex, relative to ADIFAB2 (ΔR/ΔRAD2); type: binding; conditions: fluorescence response (R-Ro) relative to ADIFAB2, linolenate
Outline: (§1)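 Mutant probes were screened against fatty acid:BSA complexes made by adding fatty acid sodium salts at pH 11 to BSA in HEPES, titrated until ADIFAB2 gave ΔR ≈0.4 ([FFAu] 100–1000 nM). Wells held 6 μM BSA; excitation 375 nm, emission 550/457 nm, background-subtracted.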

[4] = Mutant probe screening: baseline fluorescence ratio Ro and fatty acid response phenotype; type: binding; conditions: 7 FFA: AA, LNA, LA, OA, PA, POA, SA
Procedure: The intensity ratio (“R” value) for a given probe is determined. The ratio is calculated using the following formula: R=Fλ1/Fλ2 wherein, Fλ1, is the measured fluorescence intensities (intensity of sample with probe present minus intensity of sample without probe present) at wavelength 1 and Fλ2 is the measured fluorescence intensities (intensity of sample with probe present minus intensity of sample without probe present) at wavelength 2. Then, for a given probe, ΔR, the difference in R value between the measurement in the presence of the analyte and in the absence of the analyte, is calculated as follows: ΔR=R+analyte−R0 The ΔR value for a given probe is then compared to a reference probe, for example, ADIFAB or ADIFAB2, by ΔR/ΔRreference. […] Measurements of fluorescence intensities are obtained using standard techniques.
Plates were prepared and read in two stages. […] The background fluorescence was then measured at the same wavelengths as used for ADIFAB2 using a Fluorolog-3 spectrofluorometer with an external Micromax 384 fluorescence plate reader (Jobin Yvon). In the second stage, 30 μL aliquots of the mutant probes were added to multiple wells of the plate, one for each fatty acid and one with fatty acid free BSA only, and the fluorescence intensity at each wavelength was again measured on the plate reader. […]

[5] = Probe fluorescence ratio response to palmitate:BSA complex, relative to ADIFAB2 (ΔR/ΔRAD2); type: binding; conditions: fluorescence response (R-Ro) relative to ADIFAB2, palmitate
Outline: as §1

[6] = Probe fluorescence ratio response to arachidonate:BSA complex, relative to ADIFAB2 (ΔR/ΔRAD2); type: binding; conditions: fluorescence response (R-Ro) relative to ADIFAB2, arachidonate
Outline: as §1

[7] = Probe fluorescence ratio response to linoleate:BSA complex, relative to ADIFAB2 (ΔR/ΔRAD2); type: binding; conditions: fluorescence response (R-Ro) relative to ADIFAB2, linoleate
Outline: as §1

[8] = Probe fluorescence ratio response to oleate:BSA complex, relative to ADIFAB2 (ΔR/ΔRAD2); type: binding; conditions: fluorescence response (R-Ro) relative to ADIFAB2, oleate
Outline: as §1

[9] = Binding isotherm: probe titrated with UCB, Kd; conditions: non-linear fit to binding isotherm; 1 μM probe titrated with UCB (FIG. 3); read-out: Kd
Procedure: (§2) Larger preparations of select probes were prepared for quantitative determination of binding affinities. Binding isothermns were performed by measuring the fluorescence intensity for 1 μM of a given probe as the probe was titrated with known quantities of UCB. […] Table 3 lists the Kd values and mutations for some example probes. […] This property was confirmed by titration of a mixture of 0.5 μM UCB and 1 μM L2P14F7 with sodium oleate. […] Oleic acid is the most abundant FFA in serum, and measurements of normal serum samples indicate that typical unbound concentrations of oleic acid are less than 1 nM. By using non-responsive probes from FFA screening to conduct a secondary screening with other unbound analytes, a UCB-sensitive probe that has a negligible response to the major FFA in blood has been generated from a rI-FABP-L72A mutant.

[10] = Probe response to plasma samples from healthy adult donors, with and without 5 μM UCB
Procedure: The response of L2P14F7 to plasma samples from healthy adult donors, for which the UCBu concentration is expected to be about 1 nM or less, was measured (FIG. 5). Samples were diluted to 1% by volume in pH 7.4 HEPES buffer.

[11] = Titration of UCB and probe mixture with sodium oleate; type: binding; conditions: mixture of 0.5 μM UCB and 1 μM probe; after 1 μM total oleate added (FIG. 4)
Procedure: as §2

[12] = fluorescence response (R-Ro) relative to ADIFAB2
[13] = fluorescence response (R-Ro) relative to ADIFAB2, listed as L2P12G9
[14] = fluorescence response (R-Ro) relative to ADIFAB2, listed as L2P21C1

B1: L2P12 G9: acrylodan-labeled rI-FABP-L72A mutein: M18 L, G31 WT, F55 WT, A73 V (protein, UniProt P02693 2-132, looked up, variant M18L L72A A73V)
Fatty acid-binding protein, …: AFDGTWKVDRNENYEKFLEKMGINVVKRKLGAHDNLKLTITQEGNKFTVKESSNFRNIDVVFELGVDFAYSAVDGTELTGTWTMEGNKLVGKFKRVDNGKELIAVREISGNELIQTYTYEGVEAKRIFKKE
modifications: acrylodan label
notes: acrylodan-labeled rI-FABP-L72A mutein: M18 L, G31 WT, F55 WT, A73 V
ΔR/ΔRAD2 SA [1, 12]: 0.48
ΔR/ΔRAD2 SA [1, 13]: 0.4
ΔR/ΔRAD2 POA [2, 12]: −0.01
ΔR/ΔRAD2 POA [2, 13]: 0.0
ΔR/ΔRAD2 LNA [3]: 0.01
ΔR/ΔRAD2 LNA ([3]; listed as L2P12G9): 0.0
phenotype (fatty acid response) relative to ADIFAB2 [4]: response only for AA and SA
ΔR/ΔRAD2 PA [5]: 0.03
ΔR/ΔRAD2 PA ([5]; listed as L2P12G9): 0.0
ΔR/ΔRAD2 AA [6]: 0.54
ΔR/ΔRAD2 AA ([6]; listed as L2P12G9): 0.5
ΔR/ΔRAD2 LA [7]: −0.07
ΔR/ΔRAD2 LA ([7]; listed as L2P12G9): −0.1
ΔR/ΔRAD2 OA [8]: 0.07
ΔR/ΔRAD2 OA ([8]; listed as L2P12G9): 0.0

Kd [9]: 150 nM
B2: L2P14F7: UCB probe from rI-FABP-L72A; mutations 18G 31 M 72A (protein, UniProt P02693 2-132, looked up, variant M18G G31M L72A)
Fatty acid-binding protein, …: AFDGTWKVDRNENYEKFGEKMGINVVKRKLMAHDNLKLTITQEGNKFTVKESSNFRNIDVVFELGVDFAYSAADGTELTGTWTMEGNKLVGKFKRVDNGKELIAVREISGNELIQTYTYEGVEAKRIFKKE
modifications: fluorescent label
notes: UCB probe from rI-FABP-L72A; mutations 18G 31 M 72A
response to plasma samples ([10]; healthy adult donors, samples diluted to 1% by volume in pH 7.4 HEPES buffer): Little to no response
probe fluorescence after spiking plasma samples with UCB ([10]; samples A and B spiked with 5 μM UCB): substantial decrease in the fluorescence
response on titration with sodium oleate [11]: no change in response

B3: L2P21 C1: acrylodan-labeled rI-FABP-L72A mutein: M18 I, G31 Y, F55 WT, A73 V (protein, UniProt P02693 2-132, looked up, variant M18I G31Y L72A A73V)
Fatty acid-binding protein, …: AFDGTWKVDRNENYEKFIEKMGINVVKRKLYAHDNLKLTITQEGNKFTVKESSNFRNIDVVFELGVDFAYSAVDGTELTGTWTMEGNKLVGKFKRVDNGKELIAVREISGNELIQTYTYEGVEAKRIFKKE
modifications: acrylodan label
notes: acrylodan-labeled rI-FABP-L72A mutein: M18 I, G31 Y, F55 WT, A73 V
ΔR/ΔRAD2 SA [1, 12]: 2.02
ΔR/ΔRAD2 SA [1, 14]: 1.6
ΔR/ΔRAD2 POA [2, 12]: 3.52
ΔR/ΔRAD2 POA [2, 14]: 2.9
ΔR/ΔRAD2 LNA [3]: 3.73
ΔR/ΔRAD2 LNA ([3]; listed as L2P21C1): 3.1
phenotype (fatty acid response) relative to ADIFAB2 [4]: greater response for all 7 FFA
ΔR/ΔRAD2 PA [5]: 2.54
ΔR/ΔRAD2 PA ([5]; listed as L2P21C1): 2.0
ΔR/ΔRAD2 AA [6]: 3.27
ΔR/ΔRAD2 AA ([6]; listed as L2P21C1): 2.8
ΔR/ΔRAD2 LA [7]: 4.04
ΔR/ΔRAD2 LA ([7]; listed as L2P21C1): 3.4
ΔR/ΔRAD2 OA [8]: 3.20
ΔR/ΔRAD2 OA ([8]; listed as L2P21C1): 2.7

From patent US20050244864A1, “Development and use of fluorescent probes of unbound analytes” (priority 2004, published 2005)
